Test results published in patent US12070492B2, “Therapeutic compositions and methods with cytokine signaling immunomodulators” (Hennepin Healthcare Research Institute, priority 2016, dated 2024).

Experiments:
[1] = Pre-clinical toxicology: serum biochemistry parameters and body weight; assay type: in vivo, BALB/c mice
Protocol: Serum biochemistry parameters in BALB/C mice treated with KLH, OXY-KLH, anti-IL-4 mAb, or anti-IL-4 mAb plus OXY-KLH. […] The values for AST (aspartate aminotransferase) were higher among groups, perhaps as a result of muscle injury due from the injections.
(§1) Male BALB/c mice were immunized with KLH, OXY-KLH, anti-IL-4 mAb, or OXY-KLH plus anti-IL-4 mAb. The OXY-KLH and the unconjugated KLH control were administered subcutaneously on days 0, 14 and 28, while the anti-IL-4 mAb was administered intraperitoneally as in EXAMPLE 2. A week after the third immunization, mice were euthanized with CO2 to perform histopathology and clinical pathology by serum chemistry. Organs were harvested and preserved in 10% formaldehyde (methanol free, ultrapure EM grade, Polysciences, Inc., Warminster, PA), and sent to the University of Minnesota School of Veterinary Medicine for histology analysis in the laboratory of Dr. Davis Seelig. Serum was collected by centrifugation at 7500 rpm for three minutes at 4° C. and collected in lithium heparin ([…], Becton, Dickinson and Co., Franklin Lakes, NJ). Frozen samples were sent to Marshfield Labs (Marshfield, WI) for the panel tests analysis.

[2] = Histopathology across four treatment groups; assay type: in vivo, BALB/c mice
Protocol: FIG. 12. Co-administration of vaccines and an anti-IL-4 mAb is safe. Histopathology across four treatment groups. […] Occasionally, these regions of were centered on lymphocyte-rich lymphatic vessels. The severity of the lung pathology was similar across the four treatment groups.
as §1

6OXY-specific GC B cells = 6OXY-specific GC B cells by magnetic enrichment and flow cytometry after OXY-KLH with IL-4; assay type: in vivo, mice; details: IL-4 60,000 IU s.c. with OXY-KLH in alum, seven days after one immunization
From the text: FIG. 4. IL-4 increased vaccine-specific GC B cells and post-vaccination GC formation. Mice were immunized subcutaneously once with the OXY-KLH vaccine adsorbed in alum adjuvant with saline or IL-4 (60,000 IU, subcutaneously). At seven days after immunization, lymph nodes and spleens were collected for analysis of antigen-specific B cell populations. Using a two-step procedure, OXY-specific B cells were first isolated by magnetic enrichment using biotinylated oxycodone-based haptens conjugated to streptavidin (SA) conjugated to the fluorescent protein phycoerythrin (PE) or a decoy reagent, and then analyzed by multi-parameter flow cytometry. (A) 6OXY-specific CD38^neg GL7^high “committed” GC B cells; (B) 6OXY-specific CD38^+ GL7^+ “uncommitted” GC B cells; (C) Ratio of 6OXY-specific (CD38^neg) to (CD38^+) GL7^+ B cells, a measure of GC activation and B cell commitment to GC-dependent pathways; (D) 6OXY-specific IgM^high naive and memory B cells. Data shown are from two independent experiments and expressed as mean±SEM (n=10). […] Statistical symbols: *p<0.05, and […].
Mice were immunized subcutaneously once with OXY-KLH in alum adjuvant in combination with IL-4 (60,000 IU, Bio-Techne Corp., Minneapolis, MN). […]

[3] = serum, BALB/c mice, a week after third immunization, mean ± SEM

Molecule	Body weight ([1]; BALB/c mice, a week after third immunization, mean ± SEM)	Protein, bilirubin, ALT, urea nitrogen, and total cholesterol versus normal range ([1]; serum, BALB/C mice)	Values for AST (aspartate aminotransferase) ([1]; serum, BALB/C mice, perhaps muscle injury from the injections)	ALT [1, 3]	AST [1, 3]	Cholesterol [1, 3]	Total bilirubin [1, 3]	Total protein [1, 3]	Urea nitrogen [1, 3]	Histopathology, kidney, heart, thymus, stomach, small intestine, large intestine, and pancreas ([2]; mouse, in vivo)	Histopathology, spleen ([2]; mouse, in vivo)	Histopathology, liver (centrolobular hepatocytes) ([2]; similar in severity across four treatment groups)	Histopathology, lungs (interstitium) ([2]; with concurrent congestion, severity similar across the four treatment groups)	post-vaccination GC formation (fraction of subjects) (6OXY-specific GC B cells)	vaccine-specific GC B cells (6OXY-specific GC B cells)
keyhole limpet hemocyanin [KLH]	26.5 ± 0.39 g	in the normal range	higher	71.6 ± 3.2^ U/L	626 ± 24.7 U/L	161 ± 10.4 mg/dL	0.2 ± 0.10 mg/dL	5.7 ± 0.32 g/dL	20 ± 1.5 mg/dL	No significant pathology	No significant pathology	occasionally moderate vacuolar change	mild to occasionally moderately increased numbers of inflammatory cells	–	–
IL-4: recombinant mouse IL-4 from Bio-Techne Corp., co-administered with OXY-KLH (protein, UniProt P07750 21-140, looked up) Interleukin-4: HIHGCDKNHLREIIGILNEVTGEGTPCTEMDVPNVLTATKNTTESELVCRASKVLRIFYLKHGKTPCLKKNSSVLMELQRLFRAFRCLDSSISCTMNESKSTSLKDFLESLKSIMQMDYS	–	–	–	–	–	–	–	–	–	–	–	–	–	increased	increased
